One assay has as its target human HER2 (human) (UniProt P04626). Nature of the assay: surface plasmon resonance, equilibrium binding analysis. On the technique in general: Surface plasmon resonance follows binding to a sensor surface in real time, without labels.
Another assay addresses human CD3 (human). The description is as above.
Assay [1] concerns the target cynomolgus monkey CD3 (cynomolgus monkey). The assay is described as above.
Assay [2] deals with cynomolgus monkey HER2 (cynomolgus monkey). Described as above.
For assay [3], the target named is human HER2 expressed on target cells (BT-474, SKOV3, MCF-7, human cardiomyocytes) (human) (UniProt P04626). Put plainly: cell-based or functional assay.

Two substances from US20230322922A1 can be followed below.

What is called Kd is the free concentration of one partner at which half of the binding sites on the other are occupied at equilibrium, for simple one-to-one binding. For the substance AMX-818 (bispecific antibody), the Kd in the assay with human HER2 (human) was 24.9 nM; with human CD3 (human), 160 nM; in assay [1] it was 140 nM; in assay [2], 20.1 nM. Also, the fold reduction of affinity by masking, against AMX-818(PAT) is 6 fold with human CD3 (human), 6 fold in assay [1] and 10 fold in assay [2]. The substance also showed a T cell-mediated cytotoxicity against BT474 cells (PBMC 1:1, 48 h, CellTiter-Glo), EC50 in assay [3] of 49.4 nM. The substance further yielded a T cell-mediated cytotoxicity against SKOV3 cells (PBMC 1:1, 48 h, CellTiter-Glo), EC50 in assay [3] of 44.5 nM.
On to AMX-818(PAT) (bispecific antibody), for which, in the assay with human CD3 (human), the Kd is 26.3 nM. The substance further yielded a Kd in assay [1] of 21.5 nM. In assay [2], this substance returned a dissociation constant (Kd) of 2 nM. In assay [3], the Jurkat NFAT-Luciferase reporter T cell activation in the presence of BT-474 cells, EC50 amounted to 0.07 nM; the T cell-mediated cytotoxicity against BT474 cells (PBMC 1:1, 48 h, CellTiter-Glo), EC50 turned out to be 0.0048 nM; the T cell-mediated cytotoxicity against SKOV3 cells (PBMC 1:1, 48 h, CellTiter-Glo), EC50 turned out to be 0.0034 nM; the cytotoxicity against BT-474 tumor cells with PBMC effectors (1:1), IC50 was in the range of 0.005 to 0.011 nM.
